Data taken from patent publication US20170224816A1.

Biological target: CD81 (UniProt P60033)
Experiment: cell-based or functional assay

Sequence of UniProt P60033 (P60033 whole entry): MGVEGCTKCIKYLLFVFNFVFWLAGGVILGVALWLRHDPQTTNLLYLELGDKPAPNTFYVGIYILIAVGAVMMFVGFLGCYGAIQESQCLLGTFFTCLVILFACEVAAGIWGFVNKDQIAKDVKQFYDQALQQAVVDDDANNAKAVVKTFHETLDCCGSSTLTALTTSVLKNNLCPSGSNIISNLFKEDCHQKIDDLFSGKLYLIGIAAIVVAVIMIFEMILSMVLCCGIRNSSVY

- degradation of total CD81, Western blot of HepG2 cells: 25%
Substance: PCSK9 (proprotein convertase subtilisin/kexin type 9) (from UniProt Q8NBP7 31-692) (enzyme)
